B1: Serine/threonine-protein kinase Chk1 (Homo sapiens), O14757 (parent)
chain: MAVPFVEDWDLVQTLGEGAYGEVQLAVNRVTEEAVAVKIVDMKRAVDCPENIKKEICINKMLNHENVVKFYGHRREGNIQYLFLEYCSGGELFDRIEPDIGMPEPDAQRFFHQLMAGVVYLHGIGITHRDIKPENLLLDERDNLKISDFGLATVFRYNNRERLLNKMCGTLPYVAPELLKRREFHAEPVDVWSCGIVLTAMLAGELPWDQPSDSCQEYSDWKEKKTYLNPWKKIDSAPLALLHKILVENPSARITIPDIKKDRWYNKPLKKGAKRPRVTSGGVSESPSGFSKHIQSNLDFSPVNSASSEENVKYSSSQPEPRTGLSLWDTSPSYIDKLVQGISFSQPTCPDHMLLNSQLLGTPGSSQNPWQRLVKRMTRFFTKLDADKSYQCLKETCEKLGYQWKKSCMNQVTISTTDRRNNKLIFKVNLLEMDDKILVDFRLSKGDGLEFKRHFLKIKGKLIDIVSSQKIWLPAT
partner: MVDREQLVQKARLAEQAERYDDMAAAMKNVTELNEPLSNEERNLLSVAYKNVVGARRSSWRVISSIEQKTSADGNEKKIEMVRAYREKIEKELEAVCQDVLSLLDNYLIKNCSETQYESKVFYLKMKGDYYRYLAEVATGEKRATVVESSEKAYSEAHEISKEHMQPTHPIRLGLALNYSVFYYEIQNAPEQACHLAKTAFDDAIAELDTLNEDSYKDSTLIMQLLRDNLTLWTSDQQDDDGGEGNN

Variants of: B1
Settings: with 1433g_human YWHAG

Variant | effect of a mutation on the interaction
MAVPFVEDWDLVQTLGEGAYGEVQLAVNRVTEEAVAVMIVDMKRAVDCPENIKKEICINKMLNHENVVKFYGHRREGNIQYLFLEYCSGGELFDRIEPDIGMPEPDAQRFFHQLMAGVVYLHGIGITHRDIKPENLLLDERDNLKISDFGLATVFRYNNRERLLNKMCGTLPYVAPELLKRREFHAEPVDVWSCGIVLTAMLAGELPWDQPSDSCQEYSDWKEKKTYLNPWKKIDSAPLALLHKILVENPSARITIPDIKKDRWYNKPLKKGAKRPRVTSGGVSESPSGFSKHIQSNLDFSPVNSASSEENVKYSSSQPEPRTGLSLWDTSPSYIDKLVQGISFSQPTCPDHMLLNSQLLGTPGSSQNPWQRLVKRMTRFFTKLDADKSYQCLKETCEKLGYQWKKSCMNQVTISTTDRRNNKLIFKVNLLEMDDKILVDFRLSKGDGLEFKRHFLKIKGKLIDIVSSQKIWLPAT [K38M] | disrupting interaction

Variants of: B1
Settings: with 1433g_human YWHAG
Remark: another data set of the same source

Variant | effect of a mutation on the interaction
MAVPFVEDWDLVQTLGEGAYGEVQLAVNRVTEEAVAVKIVDMKRAVDCPENIKKEICINKMLNHENVVKFYGHRREGNIQYLFLEYCSGGELFDRIEPDIGMPEPDAQRFFHQLMAGVVYLHGIGITHRDIKPENLLLDERDNLKISDFGLATVFRYNNRERLLNKMCGTLPYVAPELLKRREFHAEPVDVWSCGIVLTAMLAGELPWDQPSDSCQEYSDWKEKKTYLNPWKKIDSAPLALLHKILVENPSARITIPDIKKDRWYNKPLKKGAKRPRVTSGGVSESPSGFSKHIQANLDFSPVNSASSEENVKYSSSQPEPRTGLSLWDTSPSYIDKLVQGISFSQPTCPDHMLLNSQLLGTPGSSQNPWQRLVKRMTRFFTKLDADKSYQCLKETCEKLGYQWKKSCMNQVTISTTDRRNNKLIFKVNLLEMDDKILVDFRLSKGDGLEFKRHFLKIKGKLIDIVSSQKIWLPAT [S296A] | disrupting interaction
